The record followed here is US6287561.

The experiment concerns the target gp120 of HIV-1 RF strain (HIV-1 RF strain) (UniProt P04579).

LMW-UK (from UniProt P00749): the p24 antigen level in H9 cell supernatants, percent of control was 4 % of control.
